Patent publication US20260015434A1, “ANTIBODY MATERIALS AND METHODS TARGETING MICROBIAL POLYSACCHARIDES” (priority 2022, published 2026)
Where a chain is given by its changes, count along the chain named. In names and notes the source's numbering stands.

B1: TG10 W38A: TG10 HC W38A (SEQ ID NO: 47) with TG10 LC (SEQ ID NO: 12) (antibody, V domains shown)
VH: EVQLVESGGGLVQPGGSLRLSCAVSGFPFSSYAMSWVRQAPGKGLEWVANIKEDGSEKYYVDSVKGRFTISRDNAKNSLYLQMNSLRAEDTAVYYCATDPDVGLSDSWGQGTLVTVSS
VL: EIVLTQSPGTLSLSPGDRATHSCRASQSVSRSYLAWYQQKPGQTPRLFIYGASNRATGIPDRFSGSGSGTYFTLTISRLEPEDFAVYYCQQYDSAPDTFGQGTRLEIK
modifications: Site directed mutatation of TG10 HC Variable Region; TG10 Light Chain Variable Region
B2: TG10 D109K: TG10 HC D109K (SEQ ID NO: 48) with TG10 LC (SEQ ID NO: 12) (antibody, V domains shown)
VH: B1 VH with A33W, D101K
VL: B1 VL
modifications: Site directed mutatation of TG10 HC Variable Region; TG10 Light Chain Variable Region
B3: TG10 E57A: TG10 HC E57A (SEQ ID NO: 37) with TG10 LC (SEQ ID NO: 12) (antibody, V domains shown)
VH: B1 VH with A33W, E53A
VL: B1 VL
modifications: Site directed mutation of TG10 HC Variable Region; TG10 Light Chain Variable Region
B4: TG10 LC D116A: TG10 HC (SEQ ID NO: 3) with TG10 LC D116A (SEQ ID NO: 49) (antibody, V domains shown)
VH: B1 VH with A33W
VL: B1 VL with D97A
modifications: TG10 Heavy Chain Variable Region; Site directed mutatation of TG10 HC Variable Region
B5: TG10 D109A: TG10 HC D109A (SEQ ID NO: 42) with TG10 LC (SEQ ID NO: 12) (antibody, V domains shown)
VH: B1 VH with A33W, D101A
VL: B1 VL
modifications: Site directed mutatation of TG10 HC Variable Region; TG10 Light Chain Variable Region
B6: TG10 LC Y38A: TG10 HC (SEQ ID NO: 3) with TG10 LC Y38A (SEQ ID NO: 43) (antibody, V domains shown)
VH: B1 VH with A33W
VL: EIVLTQSPGTLSLSPGDRATHSCRASQSVSRSALAWYQQKPGQTPRLFIYGASNRATGIPDRFSGSGSGTYFTLTISRLEPEDFAVYYCQQYDSAPDTFGQGTRLEIKLC
modifications: TG10 Heavy Chain Variable Region; Site directed mutation of TG10 LC Variable Region
B7: TG10 D107A: TG10 HC D107A (SEQ ID NO: 41) with TG10 LC (SEQ ID NO: 12) (antibody, V domains shown)
VH: B1 VH with A33W, D99A
VL: B1 VL
modifications: Site directed mutation of TG10 HC Variable Region; TG10 Light Chain Variable Region

How the values were obtained:
TG10 binding to PNAG 0 = assay: Monosaccharide inhibition of antibody binding on the array
Protocol: (§1) This example describes how TG10 binding is inhibited by glucosamine. For small molecule inhibition assays, arrays were blocked and washed as previously described. Antibodies F598 and TG10 were diluted to 5 μg/mL in binding buffer. 20 mM N-Acetyl glucosamine and 20 mM glucosamine in binding buffer was prepared and an equal volume of the monosaccharide solutions were added to the diluted antibodies. Antibody/monosaccharide samples were incubated at room temperature for 30 min with rotation prior to being applied to the array. For the TG10 glucosamine IC50 inhibition assay, TG10 was diluted to 30 nM in binding buffer. A pH adjusted 1M stock of Glucosamine.HCl in PBS with 3% BSA (pH 7.2) was prepared and a serial dilution in binding buffer was made. Equal volumes of TG10 and each of the serial diluted glucosamine stocks was combined. Antibody/monosaccharide samples were incubated at RT for 30 min with rotation prior to being applied to the array.
(§2) Monosaccharide inhibition of both TG10 and F598 was studied on the array. The antibodies were incubated with 10 mM glucosamine, galactosamine, N-acetyl glucosamine, and N-acetyl galactosamine and then applied to the array. The binding of TG10 with PNAG 0 and of F598 with PNAG 31 were analyzed with and without monosaccharide inhibitors (FIGS. 5A-5D). Glucosamine had the greatest effect on TG10 binding to PNAG 0, reducing signal intensity by 94% at 10 mM […] (100% at 100 mM […]). As expected, N-acetyl glucosamine inhibited F598 binding with PNAG 31, reducing RFU by 74% at 10 mM GlcNAc and 99% at 100 mM GlcNAc. […] To further illuminate the small molecule inhibition properties of glucosamine on TG10, IC50 values for glucosamine was determined by titrating GlcNH2 with TG10.

[1] = test system: F598 binding with PNAG 31; assay: as above
Protocol: as §1, §2

[2] = molecular target: TG10 binding to PNAG 0, PNAG 1, and PNAG 16; assay: TG10 glucosamine IC50 inhibition assay on the array; conditions: three best binding conjugates on the array (PNAG 0, PNAG 1, PNAG 16); TG10 diluted to 30 nM
Protocol: as §1
Monosaccharide inhibition of both TG10 and F598 was studied on the array. […] The binding of TG10 with PNAG 0 and of F598 with PNAG 31 were analyzed with and without monosaccharide inhibitors (FIGS. 5A-5D). […] To further illuminate the small molecule inhibition properties of glucosamine on TG10, IC50 values for glucosamine was determined by titrating GlcNH2 with TG10.

[3] = test system: PNAG conjugates on the array (dPNAG, PNAG and intermediate levels of deacetylation); assay: Neoglycoprotein (glycan) microarray binding, 816-component array; conditions: single point mutations
Protocol: (§3) Neoglycoprotein (NGP) microarray fabrication was performed as follows. Several NGP microarrays were constructed as previously described. Two large arrays (8 duplicate arrays per slide) composed of 815 and 870 neoglycoproteins, glycoproteins, glycopeptide conjugates, and controls were constructed and used for the experiments in this report. Additionally, a PNAG-focused array (16 duplicates per slide) with 49 array components was fabricated and used to determine apparent KD values. Array component parent stocks were diluted to 125-200 μg/mL into print buffer (1×PBS buffer with 2.5% (v/v) glycerol, 0.0005% (v/v) Triton-X 100, 0.0005 μg/mL soluble print dye 0.05 μg/mL Atto 532 (Sigma 06699). Formulated components were printed in duplicate onto 2D-Epoxy functionalized glass slides (Poly-An #104-00-221) or SuperEpoxy 2 microarray slides (ArrayIt) using an Arrayit NanoPrint LM60 arrayer at 60% humidity. Following the print, slides were scanned in a microarray fluorescence scanner (Innopsys, InnoScan 1100 AL) to validate that array components were successfully deposited onto the slide surface. Binding profiles for a representative set of lectins and antibodies were used as QC for each printed microarray batch. The printed NGP microarrays were stored under vacuum at −20° C.
(§4) Antibody selectivity and apparent KD were determined using a NGP microarray. A pre-assay scan was performed to control for missing features. Selectivity and affinity of most mAbs were measured on the full array. A focused array was used to acquire an apparent KD measurement. A slide module (8 well for full array and 16-well for focused array) was mounted onto each slide and blocking buffer (3% BSA in PBS, pH 7.4) was applied to each well of the array. Blocking was performed overnight at 4° C. mAbs were serial diluted in binding buffer (1% BSA in PBST, pH 7.4). Following the block, wells were washed 4× with wash buffer (PBST, PBS with 0.05% tween-20). Primary mAb incubation was performed for 2.5 hours at 37° C. The wells were washed 5× with wash buffer. A CY3-labeled secondary antibody specific for the Fc portion of human IgG was diluted 500 fold into binding buffer and added to each array well (Jackson ImmunoResearch, 109-165-098). Secondary mAb incubation was performed for 1.5 hours at 37° C. Wells were washed 5× with wash buffer. Slides were removed from the slide module and submerged in wash buffer for 5 minutes. Washed slides were dried by centrifugation @ 1000×g in a centrifuge quipped with a swing bucket rotor. Fluorescent scans were obtained at multiple PMT values to maximize dynamic range. Raw data was analyzed using GenePix 7.0 software as previously described. Selectivity profiles and apparent KD curves were plotted in excel and Graphpad Prism. Apparent Kos were determined using one-site specific binding algorithm in Graphpad Prism.

[4] = test system: PNAG 0 (fully deacetylated glucosamine pentasaccharide conjugate); assay: Glycan microarray binding / apparent KD; conditions: fully deacetylated PNAG conjugate PNAG 0
Protocol: as §3, §4

[5] = test system: PNAG conjugates on the array (dPNAG, PNAG and intermediate levels of deacetylation); assay: Neoglycoprotein (glycan) microarray binding, 816-component array; conditions: ability to bind both dPNAG and PNAG and intermediate levels of deacetylation

| Molecule | reduction of signal intensity of TG10 binding to PNAG 0 (TG10 binding to PNAG 0; 10 mM monosaccharide) | function of TG10 variant (binding to PNAG conjugates on the array) [3] | effect of single point mutation on binding between TG10 and PNAG 0 [4] | PNAG Binding on Array [5] | other results |
| --- | --- | --- | --- | --- | --- |
| CC(=O)N[C@H]1C(O)O[C@H](CO)[C@H](O)[C@@H]1O (stereo partly drawn) [N-acetyl galactosamine] | unchanged | – | – | – | – |
| CC(=O)N[C@H]1C(O)O[C@H](CO)[C@@H](O)[C@@H]1O (stereo partly drawn) [N-acetyl glucosamine] | 15% | – | – | – | reduction of RFU of F598 binding with PNAG 31 ([1]; 10 mM monosaccharide): 74%; reduction of RFU of F598 binding with PNAG 31 ([1]; 100 mM monosaccharide): 99% |
| N[C@H]1C(O)O[C@H](CO)[C@H](O)[C@@H]1O (stereo partly drawn) [galactosamine] | 45% | – | – | – | – |
| N[C@H]1C(O)O[C@H](CO)[C@@H](O)[C@@H]1O (stereo partly drawn) [glucosamine] | 94% | – | – | – | reduction of signal intensity of TG10 binding to PNAG 0 (TG10 binding to PNAG 0; 100 mM monosaccharide): 100%; IC50 [2]: 1 to 2 mM |
| B1 | – | functionally dead | completely removed binding | No | – |
| B2 | – | functionally dead | completely removed binding | No | – |
| B3 | – | – | greatly reduce | Yes | – |
| B4 | – | functionally dead | completely removed binding | No | – |
| B5 | – | – | greatly reduce | – | – |
| B6 | – | functionally dead | completely removed binding | – | – |
| B7 | – | functionally dead | completely removed binding | – | – |
